Laboratory results published in publication PMC5704011.
Where two headings read alike, the source gives them in different places. One block for each substance: values may come before it.

Tests used:
PDGFRα (Homo sapiens) [1] = biological target: PDGFRα (Homo sapiens) (UniProt P16234); details: cited from earlier work
Target sequence in this assay (P16234 24-528): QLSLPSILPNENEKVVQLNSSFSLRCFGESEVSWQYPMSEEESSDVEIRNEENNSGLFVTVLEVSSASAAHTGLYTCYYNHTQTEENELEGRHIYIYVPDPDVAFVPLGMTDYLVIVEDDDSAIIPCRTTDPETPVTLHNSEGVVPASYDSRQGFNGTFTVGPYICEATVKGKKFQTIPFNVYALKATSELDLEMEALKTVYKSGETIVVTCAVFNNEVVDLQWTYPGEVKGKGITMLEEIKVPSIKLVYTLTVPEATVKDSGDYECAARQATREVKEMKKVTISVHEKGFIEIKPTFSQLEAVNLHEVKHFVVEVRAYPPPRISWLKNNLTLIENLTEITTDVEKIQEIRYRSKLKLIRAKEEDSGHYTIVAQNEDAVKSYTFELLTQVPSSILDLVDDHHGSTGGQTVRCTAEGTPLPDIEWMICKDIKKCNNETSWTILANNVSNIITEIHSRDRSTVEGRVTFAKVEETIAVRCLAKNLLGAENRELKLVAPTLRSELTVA

PDGFRα (Homo sapiens) [2] = biological target: PDGFRα (Homo sapiens) (UniProt P16234); details: cited from earlier work; remark: listed apart in the source
Target sequence in this assay (P16234 24-528): as above

VEGFR1 (Homo sapiens) [3] = biological target: VEGFR1 (Homo sapiens) (UniProt P17948); assay: SPR; details: cited from earlier work
VEGFR2 (Homo sapiens) [4] = biological target: VEGFR2 (Homo sapiens) (UniProt P35968); assay: SPR; details: cited from earlier work
PDGFRα (Homo sapiens) [5] = biological target: PDGFRα (Homo sapiens) (UniProt P16234); assay: SPR; BIAcore 3000, 25 °C, CM5 chip; receptor immobilised by amine coupling (~200-500 R.U.); ligand injected at 10, 20 and 40 nM, 30 uL/min, 10 min dissociation; HBS-EP pH 7.4 (10 mM HEPES, 3 mM EDTA, 150 mM NaCl, 0.005% TWEEN-20); angiopoietin-4 reference cell subtracted; global 1:1 Langmuir fit; χ2-to-Rmax > 1.0 or negative association curves taken as no true interaction
Target sequence in this assay (P16234 24-1089): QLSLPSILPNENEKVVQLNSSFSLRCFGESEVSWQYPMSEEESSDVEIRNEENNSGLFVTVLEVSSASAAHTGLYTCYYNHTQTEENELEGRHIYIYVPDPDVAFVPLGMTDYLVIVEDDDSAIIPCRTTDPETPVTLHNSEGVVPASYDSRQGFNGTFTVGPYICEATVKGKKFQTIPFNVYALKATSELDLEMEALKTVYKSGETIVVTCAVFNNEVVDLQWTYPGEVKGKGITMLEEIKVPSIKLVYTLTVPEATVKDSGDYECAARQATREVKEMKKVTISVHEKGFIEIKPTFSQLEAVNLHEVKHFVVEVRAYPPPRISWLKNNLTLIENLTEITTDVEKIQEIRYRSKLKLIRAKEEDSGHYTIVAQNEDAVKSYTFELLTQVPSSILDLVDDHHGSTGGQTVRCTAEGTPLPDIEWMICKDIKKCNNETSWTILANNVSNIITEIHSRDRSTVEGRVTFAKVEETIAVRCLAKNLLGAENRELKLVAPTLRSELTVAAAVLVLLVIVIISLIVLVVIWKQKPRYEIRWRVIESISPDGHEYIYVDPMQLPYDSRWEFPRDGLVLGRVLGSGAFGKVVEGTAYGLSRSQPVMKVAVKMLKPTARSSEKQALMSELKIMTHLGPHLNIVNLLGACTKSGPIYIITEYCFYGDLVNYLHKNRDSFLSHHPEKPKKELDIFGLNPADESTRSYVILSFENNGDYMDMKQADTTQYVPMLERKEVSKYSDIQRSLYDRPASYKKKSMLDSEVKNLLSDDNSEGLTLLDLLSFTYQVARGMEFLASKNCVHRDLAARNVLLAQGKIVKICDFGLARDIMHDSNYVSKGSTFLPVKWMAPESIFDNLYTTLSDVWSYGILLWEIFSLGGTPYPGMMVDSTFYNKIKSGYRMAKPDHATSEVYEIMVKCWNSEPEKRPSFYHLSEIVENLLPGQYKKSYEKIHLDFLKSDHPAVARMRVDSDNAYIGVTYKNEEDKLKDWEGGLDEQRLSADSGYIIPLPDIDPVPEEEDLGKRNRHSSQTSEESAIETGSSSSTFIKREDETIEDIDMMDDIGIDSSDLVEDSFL

[6] = biological target: human recombinant PDGFRβ (human) (UniProt P09619); assay: as above
VEGFR1 (Homo sapiens) [7] = biological target: VEGFR1 (Homo sapiens) (UniProt P17948); assay: SPR; BIAcore 3000, 25 °C, CM5 chip; receptor immobilised by amine coupling (~200-500 R.U.); ligand injected at 40, 20 and 10 nM in HBS-EP pH 7.4 (10 mM HEPES, 3 mM EDTA, 150 mM NaCl, 0.005% TWEEN-20); angiopoietin-4 reference cell subtracted; global 1:1 Langmuir fit; χ^2-to-Rmax < 1.0 taken as a true interaction
Target sequence in this assay (P17948 27-758): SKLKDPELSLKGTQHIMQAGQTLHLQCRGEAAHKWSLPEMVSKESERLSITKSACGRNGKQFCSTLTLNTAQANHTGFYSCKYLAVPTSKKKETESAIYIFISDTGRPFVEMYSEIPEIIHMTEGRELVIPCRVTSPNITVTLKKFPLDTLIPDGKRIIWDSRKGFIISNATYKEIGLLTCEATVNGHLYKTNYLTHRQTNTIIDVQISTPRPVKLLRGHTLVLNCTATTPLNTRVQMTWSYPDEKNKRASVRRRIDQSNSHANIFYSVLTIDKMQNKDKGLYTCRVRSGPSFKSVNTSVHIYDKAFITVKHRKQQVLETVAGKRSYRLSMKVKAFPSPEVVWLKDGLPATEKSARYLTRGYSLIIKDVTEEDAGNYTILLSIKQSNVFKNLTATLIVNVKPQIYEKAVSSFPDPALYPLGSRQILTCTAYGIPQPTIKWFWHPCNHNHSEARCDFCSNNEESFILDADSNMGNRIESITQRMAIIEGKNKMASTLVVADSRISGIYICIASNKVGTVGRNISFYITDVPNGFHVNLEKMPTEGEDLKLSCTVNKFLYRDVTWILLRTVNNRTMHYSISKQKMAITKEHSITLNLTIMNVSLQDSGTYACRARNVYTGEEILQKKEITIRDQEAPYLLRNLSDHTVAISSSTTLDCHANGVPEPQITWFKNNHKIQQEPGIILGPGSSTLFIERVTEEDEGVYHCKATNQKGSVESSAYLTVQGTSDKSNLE

VEGFR2 (Homo sapiens) [8] = biological target: VEGFR2 (Homo sapiens) (UniProt P35968); assay: as above
Target sequence in this assay (P35968 20-764): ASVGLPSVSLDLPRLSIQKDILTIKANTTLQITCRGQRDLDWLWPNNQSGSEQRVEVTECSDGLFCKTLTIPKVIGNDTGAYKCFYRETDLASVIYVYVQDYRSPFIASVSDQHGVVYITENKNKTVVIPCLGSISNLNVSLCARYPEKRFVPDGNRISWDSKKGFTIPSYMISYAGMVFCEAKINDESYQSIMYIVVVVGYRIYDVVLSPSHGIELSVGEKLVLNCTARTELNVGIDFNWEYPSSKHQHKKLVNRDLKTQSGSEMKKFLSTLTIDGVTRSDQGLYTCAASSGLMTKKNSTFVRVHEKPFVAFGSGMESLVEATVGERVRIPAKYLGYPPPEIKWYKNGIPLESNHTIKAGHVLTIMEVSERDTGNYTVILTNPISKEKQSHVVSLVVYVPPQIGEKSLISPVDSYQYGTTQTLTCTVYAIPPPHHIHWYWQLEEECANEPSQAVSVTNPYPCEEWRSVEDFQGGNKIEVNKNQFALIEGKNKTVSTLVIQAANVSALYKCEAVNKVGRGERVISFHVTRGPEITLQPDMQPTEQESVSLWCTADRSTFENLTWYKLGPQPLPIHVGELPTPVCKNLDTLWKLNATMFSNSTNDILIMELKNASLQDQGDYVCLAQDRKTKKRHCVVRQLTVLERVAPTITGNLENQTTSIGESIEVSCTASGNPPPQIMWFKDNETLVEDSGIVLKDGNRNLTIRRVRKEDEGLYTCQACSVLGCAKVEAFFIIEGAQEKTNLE

VEGFR1 (Homo sapiens) [9] = biological target: VEGFR1 (Homo sapiens) (UniProt P17948); assay: SPR; BIAcore 3000, 25 °C, CM5 chip; receptor immobilised by amine coupling (~200-500 R.U.); ligand injected at 10, 20 and 40 nM, 30 uL/min, 10 min dissociation; HBS-EP pH 7.4 (10 mM HEPES, 3 mM EDTA, 150 mM NaCl, 0.005% TWEEN-20); angiopoietin-4 reference cell subtracted; global 1:1 Langmuir fit; χ2-to-Rmax > 1.0 or negative association curves taken as no true interaction
Target sequence in this assay (P17948 27-758): as the sequence (P17948 27-758) above

VEGFR2 (Homo sapiens) [10] = biological target: VEGFR2 (Homo sapiens) (UniProt P35968); assay: as above
Target sequence in this assay (P35968 20-764): as the sequence (P35968 20-764) above

Sequence of human recombinant PDGFRβ (human) (P09619 33-1106): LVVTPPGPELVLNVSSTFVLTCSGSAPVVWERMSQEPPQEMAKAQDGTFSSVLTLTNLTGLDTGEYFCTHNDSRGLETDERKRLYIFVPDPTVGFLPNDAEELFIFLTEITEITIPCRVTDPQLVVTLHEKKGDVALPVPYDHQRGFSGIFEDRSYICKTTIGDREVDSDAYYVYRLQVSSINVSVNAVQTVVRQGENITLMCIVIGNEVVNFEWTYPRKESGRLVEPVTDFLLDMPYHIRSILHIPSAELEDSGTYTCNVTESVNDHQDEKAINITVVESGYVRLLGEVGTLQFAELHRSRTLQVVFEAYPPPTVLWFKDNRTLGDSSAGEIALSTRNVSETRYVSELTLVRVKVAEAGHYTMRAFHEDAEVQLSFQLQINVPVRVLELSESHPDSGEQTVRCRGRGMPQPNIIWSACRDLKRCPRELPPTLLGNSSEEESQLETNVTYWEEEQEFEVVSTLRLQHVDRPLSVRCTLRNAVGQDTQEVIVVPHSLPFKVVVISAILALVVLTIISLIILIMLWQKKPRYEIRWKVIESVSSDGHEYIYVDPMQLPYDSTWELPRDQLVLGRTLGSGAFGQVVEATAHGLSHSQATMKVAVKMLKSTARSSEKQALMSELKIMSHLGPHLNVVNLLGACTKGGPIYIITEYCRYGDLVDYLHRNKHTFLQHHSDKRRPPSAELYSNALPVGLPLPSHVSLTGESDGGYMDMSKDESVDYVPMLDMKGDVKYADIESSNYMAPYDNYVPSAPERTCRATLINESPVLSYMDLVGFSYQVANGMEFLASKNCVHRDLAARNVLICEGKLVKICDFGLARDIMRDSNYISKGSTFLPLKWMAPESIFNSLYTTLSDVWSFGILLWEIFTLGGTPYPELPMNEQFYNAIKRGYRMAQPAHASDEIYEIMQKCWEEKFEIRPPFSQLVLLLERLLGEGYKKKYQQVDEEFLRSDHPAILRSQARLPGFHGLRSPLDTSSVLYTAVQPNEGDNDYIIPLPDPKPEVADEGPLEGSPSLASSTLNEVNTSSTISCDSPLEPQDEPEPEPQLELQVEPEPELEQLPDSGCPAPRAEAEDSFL
Sequence of VEGF-A (P15692 whole entry): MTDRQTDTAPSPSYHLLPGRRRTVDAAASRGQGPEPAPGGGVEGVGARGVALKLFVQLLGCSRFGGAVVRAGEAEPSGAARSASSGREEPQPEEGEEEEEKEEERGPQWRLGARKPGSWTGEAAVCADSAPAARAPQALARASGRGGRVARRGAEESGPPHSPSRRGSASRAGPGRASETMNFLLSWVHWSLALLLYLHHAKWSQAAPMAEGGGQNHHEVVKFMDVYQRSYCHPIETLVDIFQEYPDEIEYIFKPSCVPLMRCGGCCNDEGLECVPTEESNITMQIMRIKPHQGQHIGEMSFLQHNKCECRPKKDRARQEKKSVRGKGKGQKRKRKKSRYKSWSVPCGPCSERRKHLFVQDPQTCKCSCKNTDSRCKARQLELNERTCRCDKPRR

Substance: PDGF-AA (from UniProt P04085)
- Kd (PDGFRα (Homo sapiens) [1]): 134 nM

Substance: PDGF-BB (from UniProt P01127)
- Kd (PDGFRα (Homo sapiens) [2]): 150 nM

Substance: VEGF-A (from UniProt P15692)
- Kd (VEGFR1 (Homo sapiens) [3]): 0.0075 nM
- Kd (VEGFR2 (Homo sapiens) [4]): 0.052 nM

- koff (PDGFRα (Homo sapiens) [5]): 0.00045 s⁻¹
- kon (PDGFRα (Homo sapiens) [5]): 680 M⁻¹ s⁻¹
Substance: human recombinant PDGF-AA (from UniProt P04085 87-211) (ligand)

- koff (PDGFRα (Homo sapiens) [5]): 0.001 s⁻¹
- kon (PDGFRα (Homo sapiens) [5]): 1200 M⁻¹ s⁻¹
- koff [6]: 0.0029 s⁻¹
- kon [6]: 1300 M⁻¹ s⁻¹
Substance: human recombinant PDGF-AB (from UniProt P04085 87-211; P01127 82-190) (ligand)

- Kd (VEGFR1 (Homo sapiens) [7]): 0.001 nM
- Kd (VEGFR2 (Homo sapiens) [8]): 0.0098 nM
- kon (VEGFR2 (Homo sapiens) [8]): 1e+06 M⁻¹ s⁻¹
- koff (VEGFR1 (Homo sapiens) [9]): 4e-07 s⁻¹
- kon (VEGFR1 (Homo sapiens) [9]): 400000 M⁻¹ s⁻¹
- koff [6]: 4e-06 s⁻¹
- kon [6]: 12000 M⁻¹ s⁻¹
- koff (VEGFR2 (Homo sapiens) [10]): 9.5e-06 s⁻¹
- kon (VEGFR2 (Homo sapiens) [10]): 970000 M⁻¹ s⁻¹
Substance: human recombinant VEGFA (from UniProt P15692 1-395) (ligand)
